The subject of data set [1] is CC(C)=CCC/C(C)=C/CC/C(C)=C/CO[P@@](=O)(O)OP(=O)(O)O. Kind of data set: Steady-state kinetics of purified farnesene synthase variant FS_B_5.3. To be noted: other: purified enzyme, 20.0 °C. The format is biochemical, Artemisia annua.
Data set [2] has the same test system. Kind of data set: cells, lysate or membranes named. To be noted: other: purified enzyme, steady-state; 20.0 °C.

Sequence of Artemisia annua β-farnesene synthase, wild type, SEQ ID NO: 111 (FS_Aa_Ec coding sequence, SEQ ID NO: 62) (Artemisia annua) (chain, as listed by the source): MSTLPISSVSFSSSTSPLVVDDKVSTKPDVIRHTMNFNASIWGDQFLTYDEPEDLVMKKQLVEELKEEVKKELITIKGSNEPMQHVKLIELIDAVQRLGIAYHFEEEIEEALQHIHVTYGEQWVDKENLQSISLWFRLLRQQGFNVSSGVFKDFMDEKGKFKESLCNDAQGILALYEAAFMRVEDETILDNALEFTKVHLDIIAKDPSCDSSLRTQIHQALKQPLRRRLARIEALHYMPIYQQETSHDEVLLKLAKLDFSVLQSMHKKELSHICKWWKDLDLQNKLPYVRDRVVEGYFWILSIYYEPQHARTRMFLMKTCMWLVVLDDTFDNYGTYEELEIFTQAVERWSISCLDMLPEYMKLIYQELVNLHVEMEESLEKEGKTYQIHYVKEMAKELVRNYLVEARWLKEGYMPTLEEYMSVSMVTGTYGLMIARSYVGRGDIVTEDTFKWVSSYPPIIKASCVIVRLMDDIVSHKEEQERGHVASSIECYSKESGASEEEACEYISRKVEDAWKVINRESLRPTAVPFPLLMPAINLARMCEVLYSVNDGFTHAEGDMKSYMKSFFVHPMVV

What is called Km is the concentration of substrate that gives half-maximal velocity. The term kcat denotes the maximal rate divided by the concentration of active sites. As for “Artemisia annua β-farnesene synthase (SEQ ID NO: 111) variant FS_B_5.3 F11S/V24D/M35T/T196S/Y288F/T319S/I434T/T446N/I460V/V467I (FS_B_5.3_Ec; parent coding sequence FS_B, SEQ ID NO: 119) (Artemisia annua; F11S/I437T/I463V/M35T/T196S/T319S/T449N/V24D/V470I/Y288F)”, in data set [1], the Km is 1.18 ± 0.44 µM and the kcat amounted to 0.093 ± 0.009 s⁻¹.
As for “Artemisia annua β-farnesene synthase, wild type, SEQ ID NO: 111 (FS_Aa_Ec coding sequence, SEQ ID NO: 62) (Artemisia annua)”, in data set [2], the Km was 0.58 ± 0.19 µM and the kcat is 0.071 s⁻¹.

These data come from US8236512B1, “Methods of developing terpene synthase variants” (Amyris, Inc., priority 2011, dated 2012).
